# Reference: patent US20230416352A1 (JIANGSU HENGRUI PHARMACEUTICALS, published 2023)
# T1: human CTGF (antigen of the Biacore assays) (human, UniProt P29279 27-349, limits assumed)
# T1 construct: also called human CTGF protein
# T1 sequence: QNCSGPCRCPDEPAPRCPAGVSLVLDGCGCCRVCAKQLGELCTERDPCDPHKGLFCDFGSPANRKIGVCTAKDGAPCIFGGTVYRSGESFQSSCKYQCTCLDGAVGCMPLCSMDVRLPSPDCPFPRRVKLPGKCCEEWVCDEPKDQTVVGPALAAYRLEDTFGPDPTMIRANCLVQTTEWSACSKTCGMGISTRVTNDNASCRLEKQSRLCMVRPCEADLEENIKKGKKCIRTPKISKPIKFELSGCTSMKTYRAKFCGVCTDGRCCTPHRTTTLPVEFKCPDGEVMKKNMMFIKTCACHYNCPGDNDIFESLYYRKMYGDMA
# Target: T1, human CTGF (antigen of the Biacore …)
# Experiment: SPR (Biacore T200), human CTGF on CM5 chip, antibody 150 ug/ml then 50 nM TGF-β1 as competitor
# Description: The antigen human CTGF was firstly fixed onto a CM5 biosensor chip (Cat. #BR-1005-30, GE) by amino coupling at a level of 1500 RU. Then high-concentration CTGF antibody (150 μg/ml) was allowed to flow over the surface of the chip for 150 s, and 50 nM TGF-β1 protein was injected for 120 s. The reaction signals were detected in real time using a Biacore T200 instrument to obtain an association and dissociation curve. After dissociation was complete in each test cycle, the biosensor chip was washed thoroughly and regenerated with a regeneration buffer.
# The data obtained from the experiment were statistically analyzed using GE Biacore T200 Evaluation version 3.0 software.
# Blocking efficiency=[1−(sample response value/blank control response value)]×100%.
row,Binder,Percent function blocking (%)
1,"Hu164-67wl (antibody, human IgG1, lambda, humanized from mab164, Hu164-VH6/VL7; IgG1/lambda) heavy: not shown light: ETVVTQEPSLTVSPGGTVTLTCRSSIGAVTTSNYANWVQQKPGQAFRGLIGGTSNRAPWTPARFSGSLLGGKAALTLSGVQPEDEAEYYCALWYSTHYVFGGGTKLTVLGQPKANPTVTLFPPSSEELQANKATLVCLISDFYPGAVTVAWKADGSPVKAGVETTKPSKQSNNKYAASSYLSLTPEQWKSHRSYSCQVTHEGSTVEKTVAPTEC",55.5
2,"Hu164-67yl (antibody, human IgG1, lambda, humanized from mab164, Hu164-VH6/VL7) heavy: EVTLKESGPVLVKPTETLTLTCTVSGFSLSTFGVHWIRQPPGKGLEWLGVIWRRGGTDYNAAFMSRLTISKDTSKSQVVFTMTNMDPVDTATYYCARDGGFDYWGQGTTVTVSSASTKGPSVFPLAPSSKSTSGGTAALGCLVKDYFPEPVTVSWNSGALTSGVHTFPAVLQSSGLYSLSSVVTVPSSSLGTQTYICNVNHKPSNTKVDKKVEPKSCDKTHTCPPCPAPELLGGPSVFLFPPKPKDTLYITREPEVTCVVVDVSHEDPEVKFNWYVDGVEVHNAKTKPREEQYNSTYRVVSVLTVLHQDWLNGKEYKCKVSNKALPAPIEKTISKAKGQPREPQVYTLPPSRDELTKNQVSLTCLVKGFYPSDIAVEWESNGQPENNYKTTPPVLDSDGSFFLYSKLTVDKSRWQQGNVFSCSVMHEALHNHYTQKSLSLSPGK light: ETVVTQEPSLTVSPGGTVTLTCRSSIGAVTTSNYANWVQQKPGQAFRGLIGGTSNRAPWTPARFSGSLLGGKAALTLSGVQPEDEAEYYCALWYSTHYVFGGGTKLTVLGQPKANPTVTLFPPSSEELQANKATLVCLISDFYPGAVTVAWKADGSPVKAGVETTKPSKQSNNKYAASSYLSLTPEQWKSHRSYSCQVTHEGSTVEKTVAPTEC",53.9
3,"CTGF antibody mAb1 (antibody, V domains shown, positive control, from CN1829740B; also called pamrevlumab; FG-3019) VH: EGQLVQSGGGLVHPGGSLRLSCAGSGFTFSSYGMHWVRQAPGKGLEWVSGIGTGGGTYSTDSVKGRFTISRDNAKNSLYLQMNSLRAEDMAVYYCARGDYYGSGSFFDCWGQGTLVTVSS VL: DIQMTQSPSSLSASVGDRVTITCRASQGISSWLAWYQQKPEKAPKSLIYAASSLQSGVPSRFSGSGSGTDFTLTISSLQPEDFATYYCQQYNSYPPTFGQGTKLEIKR",41.3
4,"Hu147-22wk (antibody, human IgG1, kappa, V domains shown, humanized from mab147, Hu147-VH2/VL2; IgG1/kappa) VH: EVQLVESGGGLVQPGGSLRLSCAASGFTFNTYAMNWVRQAPGKGLEWVARIRTKSNNYATYYADSVKDRFTISRDDSKNSLYLQMNSLKTEDTAVYYCVETGFAYWDQGTLVTVSS VL: EIVLTQSPATLSLSPGERATLSCSASSSVSYMHWFQQKPGQSPKLLIYSTSNLASGIPARFSGSGSGTDYTLTISSLEPEDFAVYYCQQRSSYPLTFGQGTKLEIKR",52.3
5,"Hu147-12wk (antibody, human IgG1, kappa, V domains shown, humanized from mab147, Hu147-VH1/VL2; IgG1/kappa) VH: EVQLVESGGGLVQPGGSLRLSCAASGFTFSTYAMNWVRQAPGKGLEWVGRIRTKSNNYATYYADSVKDRFTISRDDSKNSLYLQMNSLKTEDTAVYYCVETGFAYWDQGTLVTVSS VL: EIVLTQSPATLSLSPGERATLSCSASSSVSYMHWFQQKPGQSPKLLIYSTSNLASGIPARFSGSGSGTDYTLTISSLEPEDFAVYYCQQRSSYPLTFGQGTKLEIKR",51.6
6,"Hu147-24wk (antibody, human IgG1, kappa, V domains shown, humanized from mab147, Hu147-VH2/VL4; IgG1/kappa) VH: EVQLVESGGGLVQPGGSLRLSCAASGFTFNTYAMNWVRQAPGKGLEWVARIRTKSNNYATYYADSVKDRFTISRDDSKNSLYLQMNSLKTEDTAVYYCVETGFAYWDQGTLVTVSS VL: DIQMTQSPSSLSASVGDRVTITCSASSSVSYMHWFQQKPGKSPKLLIYSTSNLASGVPSRFSGSGSGTDYTLTISSLQPEDFATYYCQQRSSYPLTFGQGTKLEIKR",52.8
7,"Hu147-14wk (antibody, human IgG1, kappa, V domains shown, humanized from mab147, Hu147-VH1/VL4; IgG1/kappa) VH: EVQLVESGGGLVQPGGSLRLSCAASGFTFSTYAMNWVRQAPGKGLEWVGRIRTKSNNYATYYADSVKDRFTISRDDSKNSLYLQMNSLKTEDTAVYYCVETGFAYWDQGTLVTVSS VL: DIQMTQSPSSLSASVGDRVTITCSASSSVSYMHWFQQKPGKSPKLLIYSTSNLASGVPSRFSGSGSGTDYTLTISSLQPEDFATYYCQQRSSYPLTFGQGTKLEIKR",50.9
8,"Hu147-21wk (antibody, human IgG1, kappa, V domains shown, humanized from mab147, Hu147-VH2/VL1; IgG1/kappa) VH: EVQLVESGGGLVQPGGSLRLSCAASGFTFNTYAMNWVRQAPGKGLEWVARIRTKSNNYATYYADSVKDRFTISRDDSKNSLYLQMNSLKTEDTAVYYCVETGFAYWDQGTLVTVSS VL: EIVLTQSPATLSLSPGERATLSCSASSSVSYMHWFQQKPGQSPRLLIYSTSNLASGIPARFSGSGSGTDYTLTISSLEPEDFAVYYCQQRSSYPLTFGQGTKLEIKR",51.6
9,"Hu147-13wk (antibody, human IgG1, kappa, V domains shown, humanized from mab147, Hu147-VH1/VL3; IgG1/kappa) VH: EVQLVESGGGLVQPGGSLRLSCAASGFTFSTYAMNWVRQAPGKGLEWVGRIRTKSNNYATYYADSVKDRFTISRDDSKNSLYLQMNSLKTEDTAVYYCVETGFAYWDQGTLVTVSS VL: EIVLTQSPATLSLSPGERATLSCSASSSVSYMHWFQQKPGQSPKLWIYSTSNLASGVPARFSGSGSGTDYTLTISSLEPEDFAVYYCQQRSSYPLTFGQGTKLEIKR",53.3
10,"Hu147-33wk (antibody, human IgG1, kappa, V domains shown, humanized from mab147, Hu147-VH3/VL3; IgG1/kappa) VH: EVQLVESGGGLVQPGGSLRLSCAASGFSFNTYAMNWVRQAPGKGLEWVARIRTKSNNYATYYADSVKDRFTISRDDSESSLYLQMNSLKTEDTAVYYCVETGFAYWDQGTLVTVSS VL: EIVLTQSPATLSLSPGERATLSCSASSSVSYMHWFQQKPGQSPKLWIYSTSNLASGVPARFSGSGSGTDYTLTISSLEPEDFAVYYCQQRSSYPLTFGQGTKLEIKR",57.3
11,"Hu147-23wk (antibody, human IgG1, kappa, V domains shown, humanized from mab147, Hu147-VH2/VL3; IgG1/kappa) VH: EVQLVESGGGLVQPGGSLRLSCAASGFTFNTYAMNWVRQAPGKGLEWVARIRTKSNNYATYYADSVKDRFTISRDDSKNSLYLQMNSLKTEDTAVYYCVETGFAYWDQGTLVTVSS VL: EIVLTQSPATLSLSPGERATLSCSASSSVSYMHWFQQKPGQSPKLWIYSTSNLASGVPARFSGSGSGTDYTLTISSLEPEDFAVYYCQQRSSYPLTFGQGTKLEIKR",54.6
12,"Hu147-11wk (antibody, human IgG1, kappa, V domains shown, humanized from mab147, Hu147-VH1/VL1) VH: EVQLVESGGGLVQPGGSLRLSCAASGFTFSTYAMNWVRQAPGKGLEWVGRIRTKSNNYATYYADSVKDRFTISRDDSKNSLYLQMNSLKTEDTAVYYCVETGFAYWDQGTLVTVSS VL: EIVLTQSPATLSLSPGERATLSCSASSSVSYMHWFQQKPGQSPRLLIYSTSNLASGIPARFSGSGSGTDYTLTISSLEPEDFAVYYCQQRSSYPLTFGQGTKLEIKR",50.8
13,"Hu147-15wk (antibody, human IgG1, kappa, V domains shown, humanized from mab147, Hu147-VH1/VL5; IgG1/kappa) VH: EVQLVESGGGLVQPGGSLRLSCAASGFTFSTYAMNWVRQAPGKGLEWVGRIRTKSNNYATYYADSVKDRFTISRDDSKNSLYLQMNSLKTEDTAVYYCVETGFAYWDQGTLVTVSS VL: DIQLTQSPSSLSASVGDRVTITCSASSSVSYMHWFQQKPGKSPKLWIYSTSNLASGVPSRFSGSGSGTDYTLTISSLQPEDFATYYCQQRSSYPLTFGQGTKLEIKR",52.3
14,"Hu147-31wk (antibody, human IgG1, kappa, V domains shown, humanized from mab147, Hu147-VH3/VL1; IgG1/kappa) VH: EVQLVESGGGLVQPGGSLRLSCAASGFSFNTYAMNWVRQAPGKGLEWVARIRTKSNNYATYYADSVKDRFTISRDDSESSLYLQMNSLKTEDTAVYYCVETGFAYWDQGTLVTVSS VL: EIVLTQSPATLSLSPGERATLSCSASSSVSYMHWFQQKPGQSPRLLIYSTSNLASGIPARFSGSGSGTDYTLTISSLEPEDFAVYYCQQRSSYPLTFGQGTKLEIKR",55
15,"Hu147-32wk (antibody, human IgG1, kappa, V domains shown, humanized from mab147, Hu147-VH3/VL2; IgG1/kappa) VH: EVQLVESGGGLVQPGGSLRLSCAASGFSFNTYAMNWVRQAPGKGLEWVARIRTKSNNYATYYADSVKDRFTISRDDSESSLYLQMNSLKTEDTAVYYCVETGFAYWDQGTLVTVSS VL: EIVLTQSPATLSLSPGERATLSCSASSSVSYMHWFQQKPGQSPKLLIYSTSNLASGIPARFSGSGSGTDYTLTISSLEPEDFAVYYCQQRSSYPLTFGQGTKLEIKR",55.2
16,"Hu147-34wk (antibody, human IgG1, kappa, V domains shown, humanized from mab147, Hu147-VH3/VL4; IgG1/kappa) VH: EVQLVESGGGLVQPGGSLRLSCAASGFSFNTYAMNWVRQAPGKGLEWVARIRTKSNNYATYYADSVKDRFTISRDDSESSLYLQMNSLKTEDTAVYYCVETGFAYWDQGTLVTVSS VL: DIQMTQSPSSLSASVGDRVTITCSASSSVSYMHWFQQKPGKSPKLLIYSTSNLASGVPSRFSGSGSGTDYTLTISSLQPEDFATYYCQQRSSYPLTFGQGTKLEIKR",56.2
